Data: patent publication US20210070872A1 (AGENUS, published 2021)

T1: biotinylated GITR (human, UniProt Q9Y5U5 26-161, limits assumed, biotinylated (sites not given))
T1 construct: also called GITR-bio; Biotin-GITR
T1 sequence: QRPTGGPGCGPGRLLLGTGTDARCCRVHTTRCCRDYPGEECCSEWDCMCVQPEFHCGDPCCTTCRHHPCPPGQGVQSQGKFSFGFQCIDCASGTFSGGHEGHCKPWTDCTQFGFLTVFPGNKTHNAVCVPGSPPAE


Biological target: T1, biotinylated GITR
Experiment: BLI (Octet), biotin-GITR on streptavidin tips, antibody supernatant
Protocol: Several hundred germlined antibodies were selected based on binding kinetics as determined by Octet measurements (Octet RED 96 system; ForteBio™ Inc., Menlo Park, Calif.). The experimental procedure was configured according to the instruction manual of the instrument. Biotin-GITR was bound to Streptavidin biosensor (SA) and PBS (pH 7.4) was used as a blank control. Briefly, the interaction analyses were conducted at 30° C. in running buffer (PBS, 0.05% Tween, pH7.4). Sensor tips were pre-wet for 10 minutes in running buffer immediately prior to use, and the micro plates used in the Octet were filled with 200 μl of sample or buffer per well and agitated at 800 rpm. For the experiments, commercially available precoated SA tips were used. Biotinylated GITR was loaded onto the ForteBio SA fibers in PBS pH7.4 for 10 minutes and washed for 4 minutes. For the association phase, the ligand-coated SA tips were immersed for 5 minutes in cell culture supernatant that was diluted 1:10 in running buffer prior to the measurement. Dissociation of the antibody-antigen complex was measured in wells containing the Octet buffer alone for 5 minutes. After each run, the tips were regenerated with Glycine (10 mM, pH 2.0). Affinity, Kₒₙ and Koff were determined with Octet evaluation software v6.3 using a 1:1 binding model with local full fitting.

Kd [nM] | koff [s⁻¹] | kon [M⁻¹ s⁻¹] | Binder
0.354 | 0.000332 | 936000 | germline variant antibody 101 (H1917H01 / K1917H01) (antibody, V domains shown, IGHG1/IGKC expression vectors; measured from CHO culture supernatant) VH: QVQLVQSGAEVKKPGASVKVSCKASGYTFTDYAMHWVRQAPGQGLEWMGLIRTFSGGVSYNQKFQDRVTMTVDKSISTAYMELSRLRSDDTAVYYCAKSGTVRGFAYWGQGTLVTVSS VL: DIVMTQSPDSLAVSLGERATINCKSSQSLLNSSNQKNYLTWYHQKPGQPPKLLIYWASTRESGVPDRFSGSGSGTDFTLTISSVQAEDVAVYHCQNDYSFPYTFGQGTKLEIK
1.43 | 0.000761 | 534000 | germline variant antibody 97 (H1917G07 / K1917G07) (antibody, V domains shown, IGHG1/IGKC expression vectors; measured from CHO culture supernatant; also called Antibody ID 97) VH: QVQLVQSGTEVKKPGASVKVSCKGSGYTFTEYAMHWVRQAPGQGMEWIGLIRTFSGGLSYNQKFRDRVTMTVDKSISTAYMELSRLRSDDTAVYYCAKSGTVRGFAYWGQGTLVTVSS VL: DIVMTQSPDSLAVSLGERATINCKSSQSLLNSGNQKNYLTWYHQKPGQPPKLLIYWASTRESGVPDRFTGSGSGTDFTLTISSVQAEDVAVYHCQNEYSFPYTFGQGTKLEIK
1 | 0.000327 | 325000 | germline variant antibody 78 (H1917D01 / K1917D01) (antibody, V domains shown, IGHG1/IGKC expression vectors; measured from CHO culture supernatant; also called Antibody ID 78) VH: QVQLVQSGAEVKKPGASVKVSCKGSGYTFTDYAMYWVRQAPGQGLEWIGVIKTYSGGVTYNQKFRDRATMTVDTSISTAYMELSRLRGDDTAVYYCAKSGTVRGFAYWGRGTLVTVSS VL: DIVMTQSPDSLAVSLGERATINCKSSQSLLNSGNQKNYLTWYHQKPGQPPKMLIYWASTRESGVPDRFTGSGSGTDFTLTISSVQAEDVAVYHCQNDYSYPYTFGQGTKLEIK
2.01 | 0.000879 | 437000 | germline variant antibody 70 (H1917B04 / K1917B04) (antibody, V domains shown, IGHG1/IGKC expression vectors; measured from CHO culture supernatant; also called Antibody ID 70) VH: QVQLVQSGTEVKKPGASVKVSCKASGYTFTGYAMYWVRQAPGQGMEWIGVIRTYSGDVTYNQKFKDRATMTVDTSISTAYMELSRLRSDDTAVYYCAKSGTVRGFAYWGQGTLVTVSS VL: DIVMTQSPDSLAVSLGERATINCKSSQSLLNSGNQKNYLSWYQQKPGQPPKLLIYWASTRESGVPDRFSGSGSGTDFTLTISSLQAEDVAVYHCQNDYSFPYTFGQGTKLEIK
2.21 | 0.000657 | 298000 | germline variant antibody 107 (H1917H09 / K1917H09) (antibody, V domains shown, IGHG1/IGKC expression vectors; measured from CHO culture supernatant) VH: QVQLVQSGAEVKKPGASVKVSCKGSGYTFTGYAMYWVRQAPGQGLEWMGVIRTYSGDVSYNQKFRDRVTMTVDTSISTAYMELSRLRSDDTAVYYCAKSGTVRGFAYWGQGTLVTVSS VL: DIVMTQSPDSLAVSLGERATINCKSSQSLLNSGNQKNYLSWYHQKPGQPPKLLIYWASTRESGVPDRFTGSGSGTDFTLTISSVQAEDVAVYYCQNDYSYPYTFGQGTKLEIK
1.38 | 0.000486 | 351000 | germline variant antibody 105 (H1917H07 / K1917H07) (antibody, V domains shown, IGHG1/IGKC expression vectors; measured from CHO culture supernatant) VH: QVQLVQSGAEVKKPGASVKVSCKGSGYTFTEYAMYWVRQAPGQGLEWMGLIRTFSGGVSYNQKFKGRVTMTVDTSISTAYMELSRLRSDDTAVYYCAKSGTVRGFAYWGQGTLVTVSS VL: DIVMTQSPDSLAVSLGERATINCKSSQSLLNSGNQKNYLSWYQQKPGQPPKLLIYWASTRESGVPDRFSGSGSGTDFTLTISSVQAEDVAVYYCQNDYSYPYTFGQGTKLEIK
1.97 | 0.000632 | 321000 | germline variant antibody 102 (H1917H02 / K1917H02) (antibody, V domains shown, IGHG1/IGKC expression vectors; measured from CHO culture supernatant; also called Antibody ID 102) VH: QVQLVQSGTEVKKPGASVKVSCKASGYTFTGYAMYWVRQAPGQGLEWIGVIRTYSGGVSYNQKFRDRVTMTVDTSISTAYMELSRLRSDDTAVYYCAKSGTVRGFAYWGQGTLVTVSS VL: DIVMTQSPDSLAVSLGERATINCKSSQSLLNSSNQKNYLSWYQQKPGQPPKLLIYWASTRESGVPDRFTGSGSGTDFTLTISSVQAEDVAVYYCQNDYSYPYTFGQGTKLEIK

More lines, now with the values behind:

Binder | Kd [nM] | koff [s⁻¹] | kon [M⁻¹ s⁻¹]
germline variant antibody 5 (H1916A06 / K1916A06) (antibody, V domains shown, IGHG1/IGKC expression vectors; measured from CHO culture supernatant; also called Antibody ID 5) VH: QVQLVQSGAEVKKPGASVKVSCKGSGYTFTEYAMHWVRQAPGQGLEWMGLIRTYSGGVTYNQKFRGRVTMTVDTSISTAYMELSRLRSDDTAVYYCAKSGTVRGFAYWGQGTLVTVSS VL: DIVMTQSPDSLAAPGERATINCKSSQSLLNSSNQKNYLTWYHQKPGQPPKLLIYWASTRESGVPDRFTGSGSGTDFTLTISSVQAEDVAVYYCQNEYSFPYTFGQGTKLEIK | 1.63 | 0.000966 | 591000
germline variant antibody 21 (H1916C03 / K1916C03) (antibody, V domains shown, IGHG1/IGKC expression vectors; measured from CHO culture supernatant; also called Antibody ID 21) VH: QVQLVQSGTEVKKPGASVKVSCKGSGYTFTGYVMHWVRQAPGQGMEWIGVIRTFSGDVSYNQKFRERVTMTVDTSISTAYMELSRLRSDDTAVYYCAKSGTVRGFAYWGQGTLVTVSS VL: DIVMTQSPDSLAVSLGERATINCKSSQSLLNSGNQKNYLTWYHQKPGQPPKLLIYWASTRESGVPDRFSGSGSGTDFTLTISSVQAEDVAVYHCQNDYSYPYTFGQGTKLEIK | 8.44 | 0.00261 | 309000
germline variant antibody 49 (H1916E11 / K1916E11) (antibody, V domains shown, IGHG1/IGKC expression vectors; measured from CHO culture supernatant; also called Antibody ID 49) VH: QVQLVQSGTEVKKPGASVKVSCKGSGYTFTGYAMYWVRQAPGQGLEWMGVIRTYSGDVTYNQKFRERATMTVDTSISTAYMELSRLRSDDTAVYYCAKSGTVRGFAYWGQGTLVTVSS VL: DIVMTQSPDSLAVSLGERATINCKSSQSLLNSGNQKNYLTWYHQKPGQPPKLLIYWASTRESGVPDRFSGSGSGTDFTLTISSVQAEDVAVYHCQNDYSFPYTFGQGTKLEIK | 2.09 | 0.000707 | 338000
germline variant antibody 37 (H1916D07 / K1916D07) (antibody, V domains shown, IGHG1/IGKC expression vectors; measured from CHO culture supernatant; also called Antibody ID 37) VH: QVQLVQSGTEVKKPGASVKVSCKGSGYTFTEYAMYWVRQAPGQGMEWIGLIRTFSGEVTYNQKFKDRVTMTVDTSISTAYMELSRLRSDDTAVYYCAKSGTVRGFAYWGQGTLVTVSS VL: DIVMTQSPDSLAVSLGERATINCKSSQSLLNSGNQKNYLTWYQQKPGQPPKLLIYWASTRESGVPDRFTGSGSGTDFTLTISSLQAEDVAVYHCQNEYSYPYTFGQGTKLEIK | 0.0317 | 0.000242 | 7.64e+06
germline variant antibody 20 (H1916B12 / K1916B12) (antibody, V domains shown, IGHG1/IGKC expression vectors; measured from CHO culture supernatant; also called Antibody ID 20) VH: QVQLVQSGTEVKKPGASVKVSCKASGYTFTDYAMYWVRQAPGQGLEWIGVIRTFSGDLSYNQKFRGRVTMTVDTSISTAYMELSRLRSDDTAVYYCAKSGTVRGFAYWGQGTLVTVSS VL: DIVMTQSPDSLAVSLGERATINCKSSQSLLNSGNQKNYLTWYQQKPGQPPKMLLYWASTRESGVPDRFTGSGSGTDFTLTISSVQAEDVAVYHCQNDYSYPYTFGQGTKLEIK | 1.35 | 0.00038 | 283000
germline variant antibody 35 (H1916D05 / K1916D05) (antibody, V domains shown, IGHG1/IGKC expression vectors; measured from CHO culture supernatant; also called Antibody ID 35) VH: QVQLVQSGAEAKKPGASVKVSCKGSGYTFTGYAMYWVRQAPGQGMEWIGVIRTFSGDVTYNQKFRGRVTMTVDTSISTAYMELSRLRSDDTAVYYCAKSGTVRGFAYWGQGTLVTVSS VL: DIVMTQSPDSLAVSLGERATINCKSSQSLLNSGNQKNYLTWYHQKPGQPPKLLIYWASTRESGVPDRFTGSGSGTDFTLTISSVQAEDVAVYYCQNDYSYPYTFGQGTKLEIK | 0.187 | 0.00024 | 1.29e+06
germline variant antibody 42 (H1916E01 / K1916E01) (antibody, V domains shown, IGHG1/IGKC expression vectors; measured from CHO culture supernatant; also called Antibody ID 42) VH: QVQLVQSGTEVKKPGASVKVSCKASGYTFTDYAMYWVRQAPGQGLEWIGVIRTFSGDLTYNQKFQDRVTMTVDTSISTAYMELSRLRSDDTAVYYCAKSGTVRGFAYWGQGTLVTVSS VL: DIVMTQSPDSLAVSLGERATINCKSSQSLLNSGNQKNYLSWYQQKPGQPPKLLIYWASTRESGVPDRFSGSGSGTDFTLTISSLQAEDVAVYYCQNDYSYPYTFGQGTKLEIK | 0.377 | 0.000157 | 417000
germline variant antibody 18 (H1916B09 / K1916B09) (antibody, V domains shown, IGHG1/IGKC expression vectors; measured from CHO culture supernatant; also called Antibody ID 18) VH: QVQLVQSGTEVKKPGASVKVSCKASGYTFTGYAMYWVRQAPGQGMEWIGLIRTFSGEVTYNQKFRGRVTMTVDTSISTAYMELSRLRSDDTAVYYCAKSGTVRGFAYWGQGTLVTVSS VL: DIVMTQSPDSLAVSLGERATINCKSSQSLLNSSNQKNYLTWYHQKPGQPPKMLIYWASTRESGVPDRFTGSGSGTDFTLTISSVQAEDVAVYYCQNDYSYPYTFGQGTKLEIK | 3.77 | 0.000824 | 219000
